From the supplement of paper PMC9112550, “Optimization of the antimicrobial peptide Bac7 by deep mutational scanning” (BMC Biology, 2022) come the findings set out here.

The data set concerns Escherichia coli TOP10. Kind of data set: shrunken log2 fold change of peptide-encoding DNA abundance (4.5 h post-induction vs induction); higher = less antimicrobial activity (less host growth inhibition). Conditions: time post-induction: 4.5 h; library: site-saturation at positions 5, 18, 19, 20.
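Further: peptides expressed intracellularly from a pBAD plasmid library in pooled LB shake-flask culture, induced with 0.3% L-arabinose, DNA abundance read by NGS, three biological replicates, DESeq2 with apeglm shrinkage.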

As for RRIRYRPPRLPRPRPRPTGFPRP, the “shrunken log2 fold change” value was -0.0281.

Regarding RRIRFRPPRLPRPRPRPTGAPRP, the “shrunken log2 fold change” value turned out to be 0.257.

Regarding RRIRLRPPRLPRPRPRPMLVPRP, the “shrunken log2 fold change” value was -0.225. On to RRIRARPPRLPRPRPRPSSDPRP, for which the “shrunken log2 fold change” value is 0.301. Regarding RRIRNRPPRLPRPRPRPHTGPRP, the “shrunken log2 fold change” value was -0.313. With RRIRPRPPRLPRPRPRPPIWPRP, the “shrunken log2 fold change” value came to 0.268. As for RRIRCRPPRLPRPRPRPDDYPRP, the “shrunken log2 fold change” value was 0.0185. Take RRIRDRPPRLPRPRPRPRKPPRP: the “shrunken log2 fold change” value was 0.39. As for RRIRWRPPRLPRPRPRPTRHPRP, the “shrunken log2 fold change” value amounted to 0.37. Consider RRIRQRPPRLPRPRPRPPKAPRP, for which the “shrunken log2 fold change” value was -0.058.

On to RRIRDRPPRLPRPRPRPWFDPRP, for which the “shrunken log2 fold change” value was -0.15. RRIRNRPPRLPRPRPRPMCYPRP: the “shrunken log2 fold change” value is -0.0198. RRIRFRPPRLPRPRPRPPHDPRP: the “shrunken log2 fold change” value worked out at 0.336. As to RRIRSRPPRLPRPRPRPFWIPRP, the “shrunken log2 fold change” value is -0.299. RRIRCRPPRLPRPRPRPQNQPRP: the “shrunken log2 fold change” value is -0.00207. For RRIRSRPPRLPRPRPRPWYWPRP the value was -0.307; for RRIRWRPPRLPRPRPRPSYKPRP, -0.479.

For the sequence RRIRKRPPRLPRPRPRPFRDPRP, the “shrunken log2 fold change” value was determined as 0.222. For RRIRLRPPRLPRPRPRPITPPRP the value was 0.163; for RRIRWRPPRLPRPRPRPPREPRP, 0.808; for RRIRHRPPRLPRPRPRPYHGPRP, -0.0161. For the sequence RRIRKRPPRLPRPRPRPQHYPRP, the “shrunken log2 fold change” value is -0.0715.

As to RRIRPRPPRLPRPRPRPMEQPRP, the “shrunken log2 fold change” value worked out at 0.0098. Regarding RRIRYRPPRLPRPRPRPPRNPRP, the “shrunken log2 fold change” value was 0.142. For RRIRVRPPRLPRPRPRPIKRPRP the value was 0.048. In the case of RRIRSRPPRLPRPRPRPYRPPRP, the “shrunken log2 fold change” value was -0.365.

RRIRVRPPRLPRPRPRPDGYPRP: the “shrunken log2 fold change” value was -0.00884. Regarding RRIRKRPPRLPRPRPRPRFGPRP, the “shrunken log2 fold change” value was 0.217.

Consider RRIRNRPPRLPRPRPRPAGDPRP, for which the “shrunken log2 fold change” value stood at 0.395. As to RRIRLRPPRLPRPRPRPADYPRP, the “shrunken log2 fold change” value is -0.0944. In the case of RRIRWRPPRLPRPRPRPIPHPRP, the “shrunken log2 fold change” value came out at 0.0496. RRIRGRPPRLPRPRPRPCKCPRP: the “shrunken log2 fold change” value is -0.082. For RRIRKRPPRLPRPRPRPRYSPRP the value was -0.705; for RRIRIRPPRLPRPRPRPLKTPRP, 0.0161; for RRIRDRPPRLPRPRPRPYVLPRP, -0.347. With RRIRWRPPRLPRPRPRPATRPRP, the “shrunken log2 fold change” value was 0.38.

Turning to RRIRRRPPRLPRPRPRPFMMPRP, the “shrunken log2 fold change” value is -0.173. With RRIRPRPPRLPRPRPRPVLKPRP, the “shrunken log2 fold change” value was -0.267. For the sequence RRIRGRPPRLPRPRPRPYMYPRP, the “shrunken log2 fold change” value is -0.251. For RRIRHRPPRLPRPRPRPIPNPRP the value was 0.101; for RRIRERPPRLPRPRPRPNQFPRP, -0.525; for RRIRGRPPRLPRPRPRPKLSPRP, -0.0523. In the case of RRIRVRPPRLPRPRPRPNSSPRP, the “shrunken log2 fold change” value was -0.0634. Turning to RRIRCRPPRLPRPRPRPNAWPRP, the “shrunken log2 fold change” value was -0.247. Regarding RRIRGRPPRLPRPRPRPWLYPRP, the “shrunken log2 fold change” value turned out to be 0.285. In the case of RRIRWRPPRLPRPRPRPAVCPRP, the “shrunken log2 fold change” value worked out at 0.803. Consider RRIRFRPPRLPRPRPRPKRRPRP, for which the “shrunken log2 fold change” value is 0.0555. For RRIRQRPPRLPRPRPRPPPGPRP the value was 0.751. RRIRFRPPRLPRPRPRPYRVPRP: the “shrunken log2 fold change” value is -0.702. On to RRIRARPPRLPRPRPRPHKAPRP, for which the “shrunken log2 fold change” value is 0.102.
